Results taken from patent US20260116990A1 (KEY2BRAIN, published 2026).
Blank lines part the entries; values can stand above or below the binder they belong to.

Key:
[1] = molecular target: T1, His-tagged ectodomain of human transferrin receptor 1 (hTfR1, R121-F760) (human, UniProt P02786 121-760); assay: SPR; hTfR1 captured on amine-coupled hTf, binder as analyte
T1 construct: Made in CHO cells; Biotinylated for some uses; also called human TfR1
Experimental: (§1) The contact time was 150 s for each concentration at […] with a final dissociation step of 500 s. […] The data with respect to the association rate constant (ka), the dissociation rate constant (kd) and the equilibrium dissociation constant (KD) was evaluated using Biacore T200 software evaluation tool applying a Langmuir 1:1 model.

[2] = molecular target: T1, His-tagged ectodomain of human …; assay: SPR Biacore T200 single-cycle; hTfR1 captured on amine-coupled hTf, binder as analyte; 1:1 model
Experimental: as §1

[3] = molecular target: T1, His-tagged ectodomain of human …; assay: SPR Biacore 8K single-cycle; hTfR1 amine-coupled to CM5 chip, fusion as analyte
[4] = molecular target: T2, His-tagged ectodomain of mouse transferrin receptor 1 (mTfR1, S122-F763) (mouse, UniProt Q62351 122-763); assay: ELISA on coated TfR1 ectodomain; 125I-labelled or original sample, anti-VHH detection
T2 construct: also called mouse TfR1
Experimental: Briefly, high-binding half-area 96-well plates (Costar 3690, Merck) were coated with ectodomains of hTfR1 and mTfR1 at […] (in PBS pH 7.4). and left over night at 4° C. Plates were blocked for 1 h using 1% BSA 0.05% Tween®20 (Merck) in PBS.

T2 sequence (Q62351 other isoform, or with tags, fused parts or gaps limits assumed): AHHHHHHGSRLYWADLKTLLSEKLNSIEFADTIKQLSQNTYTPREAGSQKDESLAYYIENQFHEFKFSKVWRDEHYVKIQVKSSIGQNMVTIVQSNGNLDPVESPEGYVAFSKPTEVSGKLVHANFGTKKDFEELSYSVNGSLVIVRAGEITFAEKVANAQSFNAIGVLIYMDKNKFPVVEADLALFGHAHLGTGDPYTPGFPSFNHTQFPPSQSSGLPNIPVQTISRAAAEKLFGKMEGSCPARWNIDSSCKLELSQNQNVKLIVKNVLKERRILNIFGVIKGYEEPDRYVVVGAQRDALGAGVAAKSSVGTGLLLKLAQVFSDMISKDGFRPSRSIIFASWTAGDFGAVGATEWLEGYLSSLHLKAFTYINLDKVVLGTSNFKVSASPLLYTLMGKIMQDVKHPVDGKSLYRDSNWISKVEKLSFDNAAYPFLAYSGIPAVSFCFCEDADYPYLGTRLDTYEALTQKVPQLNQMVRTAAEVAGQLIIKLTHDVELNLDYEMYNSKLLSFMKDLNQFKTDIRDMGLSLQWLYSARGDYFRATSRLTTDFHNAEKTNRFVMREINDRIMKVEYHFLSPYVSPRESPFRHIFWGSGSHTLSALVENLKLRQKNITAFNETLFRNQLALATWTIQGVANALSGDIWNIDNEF
T1 sequence (P02786 other isoform, or with tags, fused parts or gaps limits assumed): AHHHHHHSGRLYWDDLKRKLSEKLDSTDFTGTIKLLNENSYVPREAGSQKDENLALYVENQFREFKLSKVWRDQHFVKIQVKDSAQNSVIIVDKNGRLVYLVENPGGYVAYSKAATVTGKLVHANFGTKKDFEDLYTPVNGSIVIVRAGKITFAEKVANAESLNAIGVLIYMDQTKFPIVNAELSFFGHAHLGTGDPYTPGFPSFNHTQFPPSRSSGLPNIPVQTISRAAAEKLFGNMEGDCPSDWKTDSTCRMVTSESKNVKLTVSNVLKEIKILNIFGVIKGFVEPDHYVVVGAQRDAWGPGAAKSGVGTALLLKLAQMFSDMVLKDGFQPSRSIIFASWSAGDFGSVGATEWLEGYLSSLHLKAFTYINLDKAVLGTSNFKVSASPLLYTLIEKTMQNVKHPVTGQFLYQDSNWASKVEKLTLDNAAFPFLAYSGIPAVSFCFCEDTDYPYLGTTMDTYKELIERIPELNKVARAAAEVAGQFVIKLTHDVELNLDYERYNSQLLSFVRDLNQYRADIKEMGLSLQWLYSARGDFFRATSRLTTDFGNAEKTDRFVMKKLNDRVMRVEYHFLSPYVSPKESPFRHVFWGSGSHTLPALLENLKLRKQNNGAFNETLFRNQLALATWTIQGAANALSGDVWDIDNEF

fold lower affinity (KD) than BA1 [1]: 166 fold | Kd [2]: 3.31 nM | koff [2]: 0.00198 s⁻¹ | kon [2]: 597000 M⁻¹ s⁻¹
B1: KB_B01 monomeric VHH with C-terminal 6xHis tag and C-tag (VHH)
VHH: QVQLQESGGGLVQAGGSLRLSCAASGTPFSNNYMRWYRQAPGKQREWVAGFTSGGSTNYADSVKGRFTISRDNAEGTVYLQMDNLKPEDTAVYYCYFLDVWGQGTQVTVSS
notes: Single VHH unit from the E. coli periplasm

Kd [3]: 0.189 nM | koff [3]: 0.000117 s⁻¹ | kon [3]: 617000 M⁻¹ s⁻¹ | binding result [4]: binds
B2: BV-scFv (benchmark VHH BV at the N-terminus of 3D6 scFv) (bispecific antibody)
chain: EVQLVESGGGVVQPGGSLKLSCVASGTDFSINFIRWYRQAPGKQREFVAGFTATGNTNYADSMKGRFTISRDNTKNAVYLQIDSLKPEDTAVYYCYMLDKWGQGTQVTVSSGGGGSGGGGSGGGGSEVKLVESGGGLVKPGASLKLSCAASGFTFSNYGMSWVRQNSDKRLEWVASIRSGGGRTYYSDNVKGRFTISRENAKNTLYLQMSSLKSEDTALYYCVRYDHYSGSSDYWGQGTTVTVSGGGGSGGGGSGGGGSYVVMTQTPLTLSVTIGQPASISCKSSQSLLDSDGKTYLNWLLQRPGQSPKRLIYLVSKLDSGVPDRFTGSGSGTDFTLKISRIEAEDLGLYYCWQGTHFPRTFGGGTKLEIKGSENLYFQSHHHHHH

Kd [3]: 0.698 nM | koff [3]: 0.000122 s⁻¹ | kon [3]: 175000 M⁻¹ s⁻¹ | binding result [4]: binds
B3: scFv-BV (3D6 scFv at the N-terminus of benchmark VHH BV) (bispecific antibody)
chain: EVKLVESGGGLVKPGASLKLSCAASGFTFSNYGMSWVRQNSDKRLEWVASIRSGGGRTYYSDNVKGRFTISRENAKNTLYLQMSSLKSEDTALYYCVRYDHYSGSSDYWGQGTTVTVSGGGGSGGGGSGGGGSYVVMTQTPLTLSVTIGQPASISCKSSQSLLDSDGKTYLNWLLQRPGQSPKRLIYLVSKLDSGVPDRFTGSGSGTDFTLKISRIEAEDLGLYYCWQGTHFPRTFGGGTKLEIKGGGGSGGGGSGGGGSEVQLVESGGGVVQPGGSLKLSCVASGTDFSINFIRWYRQAPGKQREFVAGFTATGNTNYADSMKGRFTISRDNTKNAVYLQIDSLKPEDTAVYYCYMLDKWGQGTQVTVSSGSENLYFQSHHHHHH
notes: also called scFc-BV

Kd [3]: 0.845 nM | koff [3]: 0.00045 s⁻¹ | kon [3]: 535000 M⁻¹ s⁻¹ | binding result [4]: binds
B4: KB_B01-scFv (KB_B01 at the N-terminus of 3D6 scFv) (bispecific antibody)
chain: QVQLQESGGGLVQAGGSLRLSCAASGTPFSNNYMRWYRQAPGKQREWVAGFTSGGSTNYADSVKGRFTISRDNAEGTVYLQMDNLKPEDTAVYYCYFLDVWGQGTQVTVSSGGGGSGGGGSGGGGSEVKLVESGGGLVKPGASLKLSCAASGFTFSNYGMSWVRQNSDKRLEWVASIRSGGGRTYYSDNVKGRFTISRENAKNTLYLQMSSLKSEDTALYYCVRYDHYSGSSDYWGQGTTVTVSGGGGSGGGGSGGGGSYVVMTQTPLTLSVTIGQPASISCKSSQSLLDSDGKTYLNWLLQRPGQSPKRLIYLVSKLDSGVPDRFTGSGSGTDFTLKISRIEAEDLGLYYCWQGTHFPRTFGGGTKLEIKGSENLYFQSHHHHHH
notes: also called VHH-scFv

Kd [3]: 1.8 nM | koff [3]: 0.000259 s⁻¹ | kon [3]: 144000 M⁻¹ s⁻¹ | binding result [4]: binds
B5: scFv-KB_B01 (3D6 scFv at the N-terminus of KB_B01) (bispecific antibody)
chain: EVKLVESGGGLVKPGASLKLSCAASGFTFSNYGMSWVRQNSDKRLEWVASIRSGGGRTYYSDNVKGRFTISRENAKNTLYLQMSSLKSEDTALYYCVRYDHYSGSSDYWGQGTTVTVSGGGGSGGGGSGGGGSYVVMTQTPLTLSVTIGQPASISCKSSQSLLDSDGKTYLNWLLQRPGQSPKRLIYLVSKLDSGVPDRFTGSGSGTDFTLKISRIEAEDLGLYYCWQGTHFPRTFGGGTKLEIKGGGGSGGGGSGGGGSQVQLQESGGGLVQAGGSLRLSCAASGTPFSNNYMRWYRQAPGKQREWVAGFTSGGSTNYADSVKGRFTISRDNAEGTVYLQMDNLKPEDTAVYYCYFLDVWGQGTQVTVSSGSENLYFQSHHHHHH
notes: also called scFv-VHH
